The values that follow come from the PETadex activity labels (doi:10.1073/pnas.2006753117).

Substrate in data set [1]: MHET
As to the kind of experiment: Proxy for plastic degradation [kcat] (s⁻¹). As to conditions: pH 7.5.

Substrate in data set [2]: PET
As to the kind of experiment: Proxy for plastic degradation [Released monomer concentration (HPLC/LC-MS) (BHET+MHET+TPA)]. As to conditions: pH 7.5; part of the chain shown.

B1: unnamed (protein)
chain: MNFPRASRLMQAAVLGGLMAVSAAATAQTNPYARGPNPTAASLEASAGPFTVRSFTVSRPSGYGAGTVYYPTNAGGTVGAIAIVPGYTARQSSIKWWGPRLASHGFVVITIDTNSTLDQPSSRSSQQMAALRQVASLNGTSSSPIYGKVDTARMGVMGCSMGGGGSLISAANNPSLKAAAPQAPWDSSTNFSSVTVPTLIFACENDSIAPVNSSALPIYDSMSRNAKQFLEINGGSHCCANSGNSNQALIGKKGVAWMKRFMDNDTRYSTFACENPNSTRVSDFRTANCS
In the case of B1, in data set [1], the “Proxy for plastic degradation” value was found to be 0.03.

B2: unnamed (protein)
chain: MNFPRASRLMQAAVLGGLMAVSAAATAQTNPYARGPNPTAASLEASAGPFTVRSFTVSRPSGYGAGTVYYPTNAGGTVGAIAIVPGYTARQSSIKWWGPRLASHGFVVITIDTNSTLDQPSSRSSQQMAALRQVASLNGTSSSPIYGKVDTARMGVMGWSMGGGGSLISAANNPSLKAAAPQAPWDSSTNFSSVTVPTLIFACENDSIAPVNSSALPIYDSMSRNAKQFLEINGGSHSCANSGNSNQALIGKKGVAWMKRFMDNDTRYSTFACENPNSTRVSDFRTANCS
For the protein B2, in data set [1] (part of the chain shown), the “Proxy for plastic degradation” value is 0.

B3: unnamed (protein)
chain: MKSSIPISVGMLATALISGCGSVPDNTSNEPTVPLASKELCEGIASGATKVNWPNQNTVVKASVWHAVTPATANAPELPEHCEVTGSINQRTGVDGYPYEIKMRLRMPADWNGRFFMEGGGGTNGSLSAALGSLGGGQTSNALSRRFATVSTDGGHDNAVNNNPAALGSVAFGMDPQARLDHGYNSYDQVTLAGKSAVSTFYGRGPDKSYFIGCSEGGREGMMFSQRFPAHYDGIVAGAPGYQLPKAGISGAWTTQSLAPAAVGVDPDGAPLVNKSFSDPDLYLLTQAILGSCDALDGLADGIVGNYSACQSLFDPSTALNPATGQPLRCTGAKTDDCLSPVQVDAIKRAMSGPVDTAGTALYNKWPWDTGMSGLNGTTYFQGWRSWWLGSYDSSTNNAQRVNGSSARSWLVDFATPPEPVPLNQVATRMMNFDFDVDPPKIFATSGLFTQPSMQWHGATSTDLNAFRSRGGKLMLYHGMADAAFSALDTIAYYERLSTAMPSVSDFSRLFLVPGMGHCSGGPGTDRFDMLTPLVAWVENGTAPARVEASSSTPGYFGVSARSRPLCPHPQIARYTGSGDINEATNFVCGNP
B3: in data set [1], the “Proxy for plastic degradation” value was 3.8.

B4: unnamed (protein)
chain: MQTTVTTMLLASVALAACAGGGSTPLPLPQQQPPQQEPPPPPVPLASRAACEALKDGNGDMVWPNAATVVEVAAWRDAAPATASAAALPEHCEVSGAIAKRTGIDGYPYEIKFRLRMPAEWNGRFFMEGGSGTNGSLSAATGSIGGGQIASALSRNFATIATDGGHDNAVNDNPDALGTVAFGLDPQARLDMGYNSYDQVTQAGKAAVARFYGRAADKSYFIGCSEGGREGMMLSQRFPSHYDGIVAGAPGYQLPKAGISGAWTTQSLAPAAVGLDAQGVPLINKSFSDADLHLLSQAILGTCDALDGLADGIVDNYRACQAAFDPATAANPANGQALQCVGAKTADCLSPVQVTAIKRAMAGPVNSAGTPLYNRWAWDAGMSGLSGTTYNQGWRSWWLGSFNSSANNAQRVSGFSARSWLVDFATPPEPMPMTQVAARMMKFDFDIDPLKIWATSGQFTQSSMDWHGATSTDLAAFRDRGGKMILYHGMSDAAFSALDTADYYERLGAAMPGAAGFARLFLVPGMNHCSGGPGTDRFDMLTPLVAWVERGEAPDQISAWSGTPGYFGVAARTRPLCPYPQIARYKGSGDINTEANFACAAPP
For B4, the figures for the “Proxy for plastic degradation” value in data set [1] (part of the chain shown) and in data set [2] were 27.6 and 0 mM, respectively.
